Experimental data: patent publication US20070270364

Target: GST-p68 fusion polypeptides

B1: histone acetyltransferase (HAT) region of p300 (protein)
chain: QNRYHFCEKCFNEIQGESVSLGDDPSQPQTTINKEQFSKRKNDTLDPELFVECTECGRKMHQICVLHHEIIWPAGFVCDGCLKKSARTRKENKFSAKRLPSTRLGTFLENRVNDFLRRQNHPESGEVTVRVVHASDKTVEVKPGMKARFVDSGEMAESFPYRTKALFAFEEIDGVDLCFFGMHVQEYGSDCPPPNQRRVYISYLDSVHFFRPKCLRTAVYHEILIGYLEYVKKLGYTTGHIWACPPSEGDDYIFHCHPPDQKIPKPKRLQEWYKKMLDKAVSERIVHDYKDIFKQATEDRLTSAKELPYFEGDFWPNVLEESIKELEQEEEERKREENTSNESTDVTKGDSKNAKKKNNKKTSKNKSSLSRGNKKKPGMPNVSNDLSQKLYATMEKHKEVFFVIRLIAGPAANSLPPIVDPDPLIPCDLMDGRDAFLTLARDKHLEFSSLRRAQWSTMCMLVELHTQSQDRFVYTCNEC
in vitro 14C-acetylation of GST-p68 fusion polypeptides (autoradiogram): p300 indeed acetylated p68 polypeptides exclusively within its N-terminal 80 amino acids
